Test results as given in PMC9122589.
Values belong to the substance of their own block, whether it stands above or below them.

Tests used:
[1] = target: BrxR (untagged WT) (Acinetobacter sp. NEB394) (UniProt A0A7H8SL41); test: EMSA; conditions: EMSA: 20 mM Tris pH 7.9, 40 mM NaCl, 2.5% sucrose, 22 C, 30 min; 20 nM DNA (10 nM in Fig S6), 25-800 nM BrxR; 7% native gel in TBE
[2] = target: BrxR ('BREX Regulator') from Acinetobacter sp. NEB394, untagged (Acinetobacter sp. NEB394); test: SEC; elution profile of purified protein on size exclusion chromatography; conditions of this run not stated
[3] = target: BrxR ('BREX Regulator') from Acinetobacter sp. NEB394, untagged (Acinetobacter sp. NEB394); test: crystal structure; BrxR (125 uM) co-crystallized with 25 bp dsDNA target (150 uM), 2.3 Å, molecular replacement; 0.04 M citric acid, 20% PEG 3350, 60 mM Bis-Tris propane pH 6.4
[4] = target: selenomethionyl (SeMet)-containing BrxR from Acinetobacter sp. NEB394 (Acinetobacter sp. NEB394); test: crystal structure; apo BrxR, SeMet-derivatized protein, SAD phasing, 2.3 Å; crystals from 10% PEG3000, 0.1 M HEPES pH 7.3, 2% benzamidine-HCl
[5] = target: BrxR (R47A) from Acinetobacter sp. NEB394 (Acinetobacter sp. NEB394); test: SEC; elution profile of purified protein on size exclusion chromatography; conditions of this run not stated

Substance: GCGGAGTCCATCCAAACATCGGGAGATTTTGATCAGATATGTTTAACCTGCCCTCACAATACCGTAAAAATAATTTACTGTATATTCATTGTAGGGTAGTCTTGATCACATTGTTTATTGACCGATTGTTCTATGACAGCAGACAAGCATGAAGTGCTTCTCAGAATGAGGGCGATTGAGTTACTGGCCTACTGGGAAGGGCGTTTG (double strand) [BREX upstream region -109/+98 (~200 bp)]
Kd [1]: 100 nM

stoichiometry N [2]: 2
stoichiometry N [3]: 2
Substance: BrxR ('BREX Regulator') from Acinetobacter sp. NEB394, untagged (natural protein)

stoichiometry N [4]: 2
Substance: selenomethionyl (SeMet)-containing BrxR from Acinetobacter sp. NEB394 (natural protein)

stoichiometry N [5]: 2
Substance: BrxR (R47A) from Acinetobacter sp. NEB394 (natural protein)
